Experimental data published in patent US20250296997A1 (Eli Lilly, published 2025).

Assays:
[1] = target: T1, human IL-34 (human, UniProt Q6ZMJ4 21-242, Biotinylated in the CSF1R displacement ELISA (sites not given); secreted homodimer, one monomer chain given.); test: SPR, BIAcore 8K, 37 C, antibody captured on Protein A chip, IL-34 flowed; mean of at least three experiments (SD 2.9E-05 in r10c5)
T1 construct: Biotinylated in the CSF1R displacement ELISA; also called hIL-34; h IL-34
T1 sequence: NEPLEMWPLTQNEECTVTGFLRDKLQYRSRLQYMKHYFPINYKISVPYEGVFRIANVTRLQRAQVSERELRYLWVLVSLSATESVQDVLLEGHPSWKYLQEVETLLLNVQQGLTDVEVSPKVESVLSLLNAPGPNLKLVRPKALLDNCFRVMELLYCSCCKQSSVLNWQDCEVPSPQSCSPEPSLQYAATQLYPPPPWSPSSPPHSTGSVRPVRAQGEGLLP
Method: (§1) Binding affinity of anti-IL-34 monoclonal antibodies of the present disclosure to human and/or cynomolgus monkey (cyno) IL-34 may be determined by methods known in the art. Briefly, the binding affinity and kinetics of the antibody are evaluated by surface plasmon resonance using BIAcore™ 8K (Cytiva) at 37° C. […] For each cycle, 200 μL IL-34 is flowed over the immobilized antibody at 100 μL/minute, and then dissociated for 20 minutes. The chip surface is regenerated with 50 μL of glycine buffer at pH 1.5 at a flow rate of 100 μL/minute. The data are fit to a 1:1 Langmiur binding mode to derive kon, koff and to calculate KD.

[2] = target: T2, cynomolgus monkey IL-34 (cynomolgus monkey, UniProt G7Q1L3 21-242); test: SPR, BIAcore 8K, 37 C, antibody captured on Protein A chip, IL-34 flowed; mean of at least three experiments (SD 16.2 in r12c6)
T2 construct: Biotinylated in the CSF1R displacement ELISA; also called cyno IL-34
T2 sequence: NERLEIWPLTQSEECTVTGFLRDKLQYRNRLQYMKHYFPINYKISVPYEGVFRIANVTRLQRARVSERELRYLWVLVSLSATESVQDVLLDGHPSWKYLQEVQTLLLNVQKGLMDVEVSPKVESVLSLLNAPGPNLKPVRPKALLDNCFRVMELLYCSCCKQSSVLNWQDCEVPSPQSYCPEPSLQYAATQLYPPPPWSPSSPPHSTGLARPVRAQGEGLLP
Method: as §1

[3] = target: T1, human IL-34; test: cell-based or functional assay
[4] = target: T2, cynomolgus monkey IL-34; test: SPR, BIAcore 8K, 37 C, antibody captured on Protein A chip, IL-34 flowed; mean of at least three experiments (SD 5.3E-05 in r12c5)
Method: as §1

[5] = target: T1, human IL-34; test: SPR, BIAcore 8K, 37 C, antibody captured on Protein A chip, IL-34 flowed; mean of at least three experiments (SD 4.8 in r10c6)
Method: as §1

[6] = target: T2, cynomolgus monkey IL-34; test: competition ELISA: displacement of biotinylated cyno IL-34 from plate-bound cynomolgus CSF1R ECD-Fc
Method: (§2) CSF1R extracellular domain proteins (hCSFIR_Fc commercially available from R&D Cat #329-MR, cynomolgus CSFIR ECD-Fc (AAA is a linker between CSF1R extracellular domain and Fc) (SEQ ID NO: 53)) can be bound to an ELISA plate at concentrations of 30 nM in order to capture soluble biotinylated IL-34 and allowed to bind for one hour. After washing and blocking plate, biotinylated IL-34 may be added, then detected via streptavidin conjugated peroxidase. Concentrations of labeled IL-34 near the 80% binding level (EC₈₀) (3.7 nM) may be used in conjunction with a range of antibody concentrations (0-100 nM) to determine concentration of antibody required to displace IL-34 from CSF1R. After 1 hr incubation, IL-34 bound to CSFIR is detected via streptavidin conjugated peroxidase. The antibodies are assayed (n=2) and the average and standard deviation at each concentration are calculated. The potency of an antibody to displace IL-34 from CSFIR is reported as IC₅₀ (nM) with the calculated confidence interval (CI) in Table 4 and Table 5.

[7] = target: T2, cynomolgus monkey IL-34; test: SPR, BIAcore 8K, 37 C, antibody captured on Protein A chip, IL-34 flowed; mean of at least three experiments (SD 2.0E+06 in r12c4)
Method: as §1

[8] = target: T1, human IL-34; test: competition ELISA: displacement of biotinylated human IL-34 (3.7 nM) from plate-bound hCSF1R_Fc
Method: as §2

[9] = target: T1, human IL-34; test: SPR, BIAcore 8K, 37 C, antibody captured on Protein A chip, IL-34 flowed; mean of at least three experiments (SD 4.4E+05 in r10c4)
Method: as §1

B1: Antibody 1 (antibody, human IgG4 S228P, kappa, F234A L235A, V domains shown)
VH: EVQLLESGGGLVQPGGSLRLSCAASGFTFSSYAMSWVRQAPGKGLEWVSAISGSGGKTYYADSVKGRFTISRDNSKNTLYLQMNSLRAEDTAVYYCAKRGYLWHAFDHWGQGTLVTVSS
VL: EIVLTQSPGTLSLSPGERATLSCRASQSVSSLYLAWYQQKPGQAPRLLIYGASSRATGIPDRFSGSGSGTDFTLTISRLEPEDFAVYYCQVVGSSPPFTFGGGTKVEIKR
notes: Fully human anti-IL-34 IgG4 (IgG4 PAA hinge/Fc, C-terminal lysine deleted), kappa light chain; also called Exemplified Antibody 1; exemplified antibody 1
With B1 the koff [1] was 0.00026 s⁻¹, the Kd [2] was 0.0409 nM and the “IC50 (ug/ml), neutralization of human IL-34 induced luciferase reporter activity in hCSF1R expressing 293 SRE cells” value [3] was 0.0458 µg/mL. It also gave a koff [4] of 0.0003 s⁻¹, a Kd [5] of 0.0312 nM and an IC50 [6] of 0.644 nM. For the same binder, the kon [7] was 7.9e+06 M⁻¹ s⁻¹, the IC50 [8] was 0.154 nM and the kon [9] was 8.4e+06 M⁻¹ s⁻¹.
